Data published in US20130129845A1, “SCREENING METHOD FOR CHRONIC INFLAMMATION INHIBITORS OR CANCER METASTASIS INHIBITORS USING INHIBITION OF BINDING BETWEEN EMMPRIN AND S100A9 AS INDEX” (priority 2010, published 2013).

T1: EMMPRIN (Homo sapiens, UniProt P35613)
T1 construct: cDNA coding for the human EMMPRIN extracellular domain (with a myc-HA-Flag-6His tag added at the C-terminus); made in house; host or cells: HEK293 (transfected)
T1 sequence (P35613 138-325 limits assumed): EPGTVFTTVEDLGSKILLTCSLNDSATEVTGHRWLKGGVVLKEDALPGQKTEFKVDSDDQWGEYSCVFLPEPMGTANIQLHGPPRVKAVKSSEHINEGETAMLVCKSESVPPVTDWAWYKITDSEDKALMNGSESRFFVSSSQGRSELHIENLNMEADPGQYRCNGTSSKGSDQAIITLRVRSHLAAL


Experiments:
[1] = target: T1, EMMPRIN; experiment: Identification of EMMPRIN-binding proteins by immunoprecipitation and Western blotting; conditions: culture supernatants mixed; HA and Myc antibody; FIG. 6
Source text: EMMPRIN-binding proteins were identified by immunoprecipitation and Western blotting, for confirmation that EMMPRIN is a novel receptor for S100 protein. […] The S100 proteins used were S100A8 and S100A9 protein. HEK293 cells were transfected with plasmids coding for the proteins (with HA tags attached to the C-termini), and the proteins were isolated from the respective culture supernatants.
In order to analyze binding between EMMPRIN and S100A8 and S100A9 protein, the culture supernatants containing the respective proteins were mixed and reacted, and then HA antibody and Myc antibody were used for immunoprecipitation.

[2] = test system: MMP-1 and MMP-10 expression; experiment: MMP expression in keratinocytes by real-time quantitative PCR; assay type: cell-based, human; conditions: FIG. 5
Experimental: (§1) Using real-time quantitative PCR, it was then investigated whether addition of S100A9 also accelerates expression of IL-8 (CXCL-8), TNFα, IL1-F9 and CXCL-1, and whether suppressing expression of EMMPRIN has any effect on expression of these cytokines. The same method was also used to examine the effect of S100A9 stimulation on MMP-1 and MMP-10 expression.
(§2) Growth-phase NHEK, cultured in EpiLife™-KG2 (Cascade Biologies) were exposed for 3 hours after exchanging to the same culture medium containing and not containing 2 mM calcium chloride and S100A8 or S100A9 (10 μg/ml each), and a MagNA™ Pure mRNA extraction kit and a MagNA Pure™ device (Roche Diagnostics, Tokyo, Japan) were used for extraction of the mRNA. The obtained mRNA was reverse transcripted using SuperScript™ II (Invitrogen Corporation, Carlsbad, Calif., U.S.). Real-time quantitative PCR was performed on a LightCycler high-speed thermal cycler system using a LightCycler FastStart DNA master SYBR green I kit (Roche Diagnostics), according to the manufacturer's instructions. […] The expression level of each gene was quantitatively analyzed using LightCycler analysis software (NPL 11: Morrison T B et al., Biotechniques (1998)24:954-958, 960, 962). […]

[3] = test system: MMP-1 expression; experiment: Effect of soluble EMMPRIN on MMP expression in keratinocytes; assay type: cell-based, human
Source text: It was therefore investigated whether soluble EMMPRIN actually accelerates expression of MMP.
It is believed that MMP expression was suppressed when soluble EMMPRIN and S100A9 were both present because S100A9 which induces MMP production was scavenged by soluble EMMPRIN, with both forming a bonded complex.

[4] = test system: IL-8 (CXCL-8), TNFα, IL1-F9 and CXCL-1 expression; experiment: Cytokine expression in keratinocytes (NHEK) by real-time quantitative PCR; assay type: cell-based, human; conditions: S100A9-added sample with control siRNA (A9/LF); FIG. 4
Experimental: as §1, §2

Row | Molecule | binding to EMMPRIN (band in Western blot after immunoprecipitation) [1] | expression of MMP on addition of S100A9 [2] | MMP-1 expression ([3]; S100A9 alone, FIG. 7) | expression of cytokines (IL-8, TNFα, IL1-F9, CXCL-1) on addition of S100A9 [4] | MMP-1-inducing effect ([3]; added to keratinocytes at 0.025, 0.25 and 2.5 μM, FIG. 7) | MMP1 expression-accelerating effect of S100A9 ([3]; both soluble EMMPRIN and S100A9 added to keratinocytes, FIG. 7) | IL-8 expression ([3]; results not shown) | MMP-10 expression ([3]; results not shown) | TNFα expression ([3]; results not shown)
1 | S100A8: EF-hand calcium-binding S100 family protein | only a band for EMMPRIN near 32 kDa was confirmed |  |  |  |  |  |  |  | 
2 | S100A9: EF-hand calcium-binding S100 family protein, added to keratinocytes as stimulus | a band representing their bound form was confirmed near 47.5 kDa | accelerated expression of MMP | notably accelerated | induced expressed of all of the cytokines |  |  |  |  | 
3 | soluble EMMPRIN: purified recombinant human EMMPRIN extracellular domain with myc-HA-Flag-6His tag at the C-terminus (protein, UniProt P35613 138-323, looked up, extracellular domain C-terminal myc-HA-Flag-6His tag, purified recombinant human EMMPRIN extracellular domain with myc-HA-Flag-6His tag at the C-terminus) extracellular domain: EPGTVFTTVEDLGSKILLTCSLNDSATEVTGHRWLKGGVVLKEDALPGQKTEFKVDSDDQWGEYSCVFLPEPMGTANIQLHGPPRVKAVKSSEHINEGETAMLVCKSESVPPVTDWAWYKITDSEDKALMNGSESRFFVSSSQGRSELHIENLNMEADPGQYRCNGTSSKGSDQAIITLRVRSHLA |  |  |  |  | virtually no MMP-1-inducing effect | significantly suppressed | significantly suppressed | significantly suppressed | significantly suppressed
